What is called logD is the decadic logarithm of the distribution of all forms, ionised or not, between an organic phase and buffer at a given pH. A high value points to a more lipophilic compound.

Experimental findings from PMC6161111, “Design, Synthesis, In Vitro, and Initial In Vivo Evaluation of Heterobivalent Peptidic Ligands Targeting Both NPY(Y1)- and GRP-Receptors—An Improvement for Breast Cancer Imaging?” (Pharmaceuticals, 2018) are described below.

Where two headings read alike, the source gives them in different places.

Series [1] can be described thus: Stability of the 68Ga-labeled ligands in human serum. Format: in vitro ADME. The following applies: after 90 min incubation at 37 °C, radio-HPLC. How it is done: Determination of the stability of the ligands in human serum. The heterobivalent ligands (22–26) as well as the monomeric reference compounds (27 and 28) were radiolabeled with ^68Ga as described before and 125 µL of the product solution were added to 500 µL of human serum and incubated at 37 °C. At defined time-points of 5, 15, 30, 60 and 90 min, aliquots of 75 µL of the mixture were added to 75 µL of ethanol and the precipitation of serum proteins was enhanced by ice-cooling for 2 min. After centrifugation, supernatant and precipitate were measured for radioactivity and the supernatant was analyzed by analytical radio-HPLC. These experiments were performed thrice.

For another series, the system named is T-47D tumor-bearing mice. Briefly: Ex vivo biodistribution in T-47D tumor-bearing mice. The following applies: 130 min p.i. How it is done:
(§1) In vivo experiments. All animal experiments were performed in compliance with the German animal protection laws and protocols of the local committee (Regierungspräsidium Karlsruhe, approval number: 35-9185.81/G-206/15). 20, six week old female immunodeficient Fox Chase SCID (CB17/Icr-Prkdc^scid/IcrIcoCrl) mice with an average weight of 20 g were subcutaneously implanted with 17β-estradiol pellets (0.36 mg/60 days). 4 days later, the tumors were induced by subcutaneous inoculation of 5 × 10^6 T-47D cells into the left flank of the […]. After induction, the tumors were allowed to grow for 8–10 weeks and reached a diameter of about 0.5 cm. For imaging, the animals were anaesthetized with isoflurane and injected with 5.5–8.0 MBq of the respective radioligand ([^68Ga]24, [^68Ga]24a or [^68Ga]24b) into the lateral tail vein. Dynamic PET images were acquired over 90 min and CT images were obtained within further 30 min. After the end of the diagnostic scan, the animals were sacrificed, the organs were collected and measured in a gamma-counter.

Assay in series [2]: as above
The following applies: female, Fox Chase SCID (CB17/Icr-Prkdc^scid/IcrIcoCrl), mouse, in vivo, iv, total radioactivity, ex vivo biodistribution at 130 min p.i. How it is done:
as §1

The test system of the next series is T-47D cells. Briefly: In vitro cell uptake (internalization) study in T-47D cells. In kind it is cell-based, human. The settings on record: after 4 h, % of total added activity. How it is done: Cell culture. All cell lines were grown in suitable culture medium at 37 °C in a humidified CO2 (5%) atmosphere. The human breast cancer cell lines T-47D, MDA-MB-231 and MCF-7 were grown in Dulbecco’s Modified Eagle Medium (DMEM), supplemented with 10% (v/v) fetal calf serum (FCS) and 1% (v/v) L-Glutamine. For a high expression of the NPY(Y1) receptor on T-47D cells, the medium for this cell line was further supplemented with 0.15% (w/v) β-estradiol. The BT-474 and PC-3 cell lines were grown in RPMI-1640 medium, also supplemented with 10% (v/v) fetal calf serum (FCS) and 1% (v/v) L-Glutamine.
Internalization studies. Cells (T-47D, MDA-MB-231, MCF-7, BT-474 and PC-3, 1.5 × 10^6 cells per well) were seeded into 6-well plates and incubated overnight at 37 °C in a humidified CO2 (5%) atmosphere. The next day, the medium was removed and the cells were washed twice with the respective medium without supplements (ice-cold, 1 mL) and incubated with 3.7–4.0 kBq (0.37–4.0 pmol) of the respective ^68Ga-radiolabeled ligand [^68Ga]22−[^68Ga]26, [^68Ga]27 or [^68Ga]28 (in 1.5 mL medium, containing 0.5% (w/v) BSA) for defined time-points of 1, 2, 3 or 4 h at 37 °C in a humidified CO2 (5%) atmosphere. A 1000-fold excess of the respective peptide (3 or 4) was used for blocking to determine the non-specific cell uptake. At each time point, the medium was removed and the cells were washed twice with the respective medium without supplements (ice-cold, 1 mL). Cells were treated twice with 1 mL glycine buffer (ice-cold, 50 mM glycine, 100 mM NaCl, pH 2.8) for 5 min at room temperature, followed by 2 mL NaOH solution (1 M) for 10 min at 37 °C. The supernatants were collected and the radioactivity measured in a gamma counter. The internalized and surface bound activity was expressed as percentage of measured to total added activity. Each data point was generated thrice in triplicates.

Series [3] is described as follows: Determination of radiotracer lipophilicity (logD, phosphate buffer/1-octanol). Format: physicochemical. The settings on record: phosphate buffer (0.05 M, pH 7.4) / 1-octanol, six independent experiments. The method, then: Determination of radiotracer lipophilicity. The heterobivalent ligands (22–26) as well as the monomeric reference compounds (27 and 28) were radiolabeled with ^68Ga as described before and 2 µL of the product solution (~65 pmol of the respective radioligand) were added to a mixture of phosphate buffer (0.05 M, pH 7.4, 800 µL) and 1-octanol (800 µL) and incubated for 5 min at ambient temperature under vigorous shaking. Both phases were separated by centrifugation and 100 µL of each phase were measured for radioactivity in a gamma-counter. […] (cpm = counts per minute), cpmw = activity in the aqueous phase [cpm]. These experiments were performed six times independently.

The next series relates to T-47D tumor. Description: Small animal PET/CT imaging in T-47D tumor-bearing mice. Format: in vivo. The following applies: PET imaging, i.v. 5.5-8.0 MBq, n = 4. The method, then: as §1, with “For imaging, the animals were anaesthetized with isoflurane and injected with 5.5–8.0 MBq of the respective radioligand ([^68Ga]24, [^68Ga]24a or [^68Ga]24b) into the lateral tail vein. Dynamic PET images were acquired over 90 min and CT images were obtained within further 30 min.” left out
The dynamic PET images were reconstructed using the Albira Suite Reconstructor (Bruker) with an iterative dynamic reconstruction with 12 iterations using an 2D-Maximum-Likelihood Expectation-Maximization (MLEM) algorithm and a cubic image voxel size of 0.5 mm after scatter and decay correction. […] The reconstructed PET data were manually fused with the CT images using PMOD 3.6.1.1. and analyzed. Volumes of interest (VOIs) were defined for the quantification of tracer accumulation in heart, liver, kidneys, tumor, and muscle. The results for each VOI were calculated as SUV (kBq/cm^3) averaged for each time frame.

Regarding `CCCC[C@H](NC(=O)[C@H](CCCNC(=N)N)NC(=O)[C@H](Cc1c[nH]c2ccccc12)NC(=O)[C@H](CCCCNC(=O)CON=Cc1ccc(C(=O)NCCOCCOCCOCCOCCC(=O)NCCCN(CCCNC(=O)CCOCCOCCOCCOCCNC(=O)c2ccc(C=NOCC(=O)NCCOCCOCCOCCOCCC(=O)N[C@@H](CCC(N)=O)C(=O)N[C@@H](Cc3c[nH]c4ccccc34)C(=O)N[C@@H](C)C(=O)N[C@H](C(=O)NCC(=O)N[C@@H](Cc3c[nH]cn3)C(=O)N[C@@H](CC(C)C)C(=O)N[C@@H](CCSC)C(N)=O)C(C)C)cc2)CC(=O)NCCOCCOCCOCCOCCC(=O)N[C@@H](CCCCNC(=O)CCC(C(=O)O)N2CCN(CC(=O)O)CCN(CC(=O)O)CC2)C(N)=O)cc1)NC(=O)[C@@H]1CCCN1C(=O)[C@H](CC(N)=O)NC(=O)[C@@H](N)[C@@H](C)CC)C(=O)N[C@@H](CCCNC(=N)N)C(=O)N[C@@H](Cc1ccc(O)cc1)C(N)=O` (some centres unmarked) [[^68Ga]24, metal not drawn], the “degradation in human serum” value in series [1] is given as “no observable fragmentation”. This compound returned an adrenal glands uptake in the series with T-47D tumor-bearing mice (adrenal glands) of 3.57 ± 2.18 ID/g in %. In the series with T-47D tumor-bearing mice (blood), this compound registered a blood uptake of 1.13 ± 0.77 ID/g in %. Further, the bone uptake in the series on T-47D tumor-bearing mice (bone) was found to be 0.26 ± 0.14 ID/g in %. In the series on T-47D tumor-bearing mice (brain), this compound had a brain uptake of 0.11 ± 0.14 ID/g in %. In the series on T-47D tumor-bearing mice (heart), this compound had a heart uptake of 0.52 ± 0.38 ID/g in %. The kidneys uptake with T-47D tumor-bearing mice (kidneys) worked out at 34.79 ± 11.03 ID/g in %. In the series on T-47D tumor-bearing mice (large intestines), the large intestines uptake worked out at 1.80 ± 0.64 ID/g in %. In the series with T-47D tumor-bearing mice (liver), this compound came in with a liver uptake of 10.02 ± 1.54 ID/g in %. Moreover, the lung uptake in the series on T-47D tumor-bearing mice (lung) is 0.62 ± 0.17 ID/g in %. In the series with T-47D tumor-bearing mice (muscle), the muscle uptake came to 0.26 ± 0.18 ID/g in %. Further, the pancreas uptake in the series on T-47D tumor-bearing mice (pancreas) is 10.54 ± 3.13 ID/g in %. In the series on T-47D tumor-bearing mice (small intestines), the small intestines uptake amounted to 1.49 ± 0.36 ID/g in %. In the series with T-47D tumor-bearing mice (spleen), this compound showed a spleen uptake of 1.32 ± 0.33 ID/g in %. In the series with T-47D tumor-bearing mice (stomach), this compound registered a stomach uptake of 1.47 ± 0.44 ID/g in %. The tail uptake in the series with T-47D tumor-bearing mice (tail) was determined as 1.30 ± 1.21 ID/g in %. The compound also came in with a tumor uptake in the series on T-47D tumor-bearing mice (tumor) of 3.07 ± 0.33 ID/g in %. The tissue to tissue ratio at 130 min stood at 2.72 ± 0.43 in series [2] (read-out: tumor-to-blood ratio (T / B)) and 11.8 ± 1.83 in series [2] (read-out: tumor-to-muscle ratio (T / M)). In the series on T-47D cells, the specific cell uptake was 50.1 ± 2.4%. The log distribution coefficient (logD) in series [3] was -1.67 ± 0.086. For the same compound, the “tumor activity concentration at 85 min” value in the series with T-47D tumor is on record as 122.03 ± 16.27 kBq/cm^3.

In the series with T-47D cells, `CCCC[C@H](NC(=O)[C@H](CCCNC(=N)N)NC(=O)[C@H](Cc1c[nH]c2ccccc12)NC(=O)[C@H](CCCCNC(=O)CON=Cc1ccc(C(=O)NC2CCN(CC(=O)NCCCN(CCCNC(=O)CN3CCC(NC(=O)c4ccc(C=NOCC(=O)NCCOCCOCCOCCOCCC(=O)N[C@@H](CCC(N)=O)C(=O)N[C@@H](Cc5c[nH]c6ccccc56)C(=O)N[C@@H](C)C(=O)N[C@H](C(=O)NCC(=O)N[C@@H](Cc5c[nH]cn5)C(=O)N[C@@H](CC(C)C)C(=O)N[C@@H](CCSC)C(N)=O)C(C)C)cc4)CC3)CC(=O)NCCOCCOCCOCCOCCC(=O)N[C@@H](CCCCNC(=O)CCC(C(=O)O)N3CCN(CC(=O)O)CCN(CC(=O)O)CC3)C(N)=O)CC2)cc1)NC(=O)[C@@H]1CCCN1C(=O)[C@H](CC(N)=O)NC(=O)[C@@H](N)[C@@H](C)CC)C(=O)N[C@@H](CCCNC(=N)N)C(=O)N[C@@H](Cc1ccc(O)cc1)C(N)=O` (some centres unmarked) [[^68Ga]25, metal not drawn] gave a specific cell uptake of 48.2 ± 2.8%. Also, the pH-dependent lipophilicity (logD) in series [3] is -1.55 ± 0.114.

With `CCCC[C@H](NC(=O)[C@H](CCCNC(=N)N)NC(=O)[C@H](Cc1c[nH]c2ccccc12)NC(=O)[C@H](CCCCNC(=O)CON=Cc1ccc(C(=O)NC2CCN(CC(=O)NC3CCN(CC(=O)NCCCN(CCCNC(=O)CN4CCC(NC(=O)CN5CCC(NC(=O)c6ccc(C=NOCC(=O)NCCOCCOCCOCCOCCC(=O)N[C@@H](CCC(N)=O)C(=O)N[C@@H](Cc7c[nH]c8ccccc78)C(=O)N[C@@H](C)C(=O)N[C@H](C(=O)NCC(=O)N[C@@H](Cc7c[nH]cn7)C(=O)N[C@@H](CC(C)C)C(=O)N[C@@H](CCSC)C(N)=O)C(C)C)cc6)CC5)CC4)CC(=O)NCCOCCOCCOCCOCCC(=O)N[C@@H](CCCCNC(=O)CCC(C(=O)O)N4CCN(CC(=O)O)CCN(CC(=O)O)CC4)C(N)=O)CC3)CC2)cc1)NC(=O)[C@@H]1CCCN1C(=O)[C@H](CC(N)=O)NC(=O)[C@@H](N)[C@@H](C)CC)C(=O)N[C@@H](CCCNC(=N)N)C(=O)N[C@@H](Cc1ccc(O)cc1)C(N)=O` (some centres unmarked) [[^68Ga]26, metal not drawn], the specific cell uptake with T-47D cells worked out at 46.4 ± 2.4%. Besides, the logD in series [3] was -1.52 ± 0.089.
